Data on 23 sequences can be found in the DeepSol protein solubility set.

This series is described as follows: soluble on expression in E. coli; label from the status in PepcDB or PDB records.
Regarding “MSNRDQLFKAPPFENHSPLTWYQAASQLPNFIRDDAQAAAIEHLDRLWTELMMFKRKRNRFLGRSLRSPQVPKGLYFYGGVGRGKSFLMDAFFGCLPYRRKRRVHFHAFMAEIHQRLKTLKSESNPLKSVAAEIAKETRVLCFDEFHVSDIADAMILGRLLENLLNEGVVLVATSNYAPSELYPQGQNRSSFLPTIALIESSLTVLNVDGGEDYRLRTLRPAEIFFTPANEENEAKLAKLFKEMTGITDLNPGISTIHGREIPHKAESGRAIWFDFRALCFGPRSQSDYLYLAEHYEMVFISGLEQLSPQEKAEARRLTWLIDVLYDFRVKLCATGAVDVNHIYTEGDFAEEFTRTASRMVEMQSEVYLEQPHLTLSPKASGG”, the “soluble on expression in E. coli” value is “not soluble”.

Take “MSNSKPVNYLTLKCLLKNMDSGMRLQLFVMFPSIQYLEKLFPLHVKYLTIKSDHITVNRTTFQLKICNKYNNFHGGYKFDFDQYGRLDRGEIEQDPDESIIDVRDGFLSKKGIPECEMETARLVHNLTLQKSQRYSTRIWESHGTILKKLSYYVPENNFIRLKIGKRVEVLEYQRKIHEAMKYLLGRLFGGRSLEANQFSIGCDTVLRVPSTLKFRIENLYTPSFKIANTLDVVNQIVDNSSLPLSSLKYSFENHIYHHPHSLVRTVKMLKLEVEMVPDYISGIVSNLQMVDEKRAHIVFLGDCTSSNFLKILAHWILEFHRDIGTYHTYQLSEAVVDEVMIFVRTNYGVMIEAGLPQTTDQITLNINDTSSLVISKFQQKEKWIFGLKMEH”: the “soluble on expression in E. coli” value is “not soluble”.

In the case of “MSNYTIIDLNQQPHLIPSAAQWFSQKWQIPAEAYQASMQEMLTSENHVPHWWVCLNKQQDIVAGVGVIDNDFHNRADLTPNLCALYVEPTFRHQGLAGILLTTVGDFLANSGFKKLYLLTDHTTFYERYDWEFLTMVTTEEQSCARIYQKQLRQ”, the “soluble on expression in E. coli” value was “not soluble”.

For “MSPAPVQVMGVLNVTDDSFSDGGCYLDLDDAVKHGLAMAAAGAGIVDVGGESSRPGATRVDPAVETSRVIPVVKELAAQGITVSIDTMRADVARAALQNGAQMVNDVSGGRADPAMGPLLAEADVPWVLMHWRAVSADTPHVPVRYGNVVAEVRADLLASVADAVAAGVDPARLVLDPGLGFAKTAQHNWAILHALPELVATGIPVLVGASRKRFLGALLAGPDGVMRPTDGRDTATAVISALAALHGAWGVRVHDVRASVDAIKVVEAWMGAERIERDG”, the “soluble on expression in E. coli” value is on record as “soluble”.

For “MSPFDYLHFALLLVAPLAVLIGCGGKKKPPPPKSASKMGPPPPAPAPPTAPEATPAAPAPDAAAAAPAEGEKKDGDKKSEKKDGDKKEEEKKDEEKKDGDKKEDDKKDEKKDEDKKDEKKDADEKKDEEKKDDKKDEKKDEKKDEKKEKSKKSKKSSKSKKSKKSKREKKDEDKKEDDKKEDDKKDDKKEDDKKDDEKKDDDKKDDEKKE”, the “soluble on expression in E. coli” value was “not soluble”.

On to “MSPNPVEKAAILRIIDSIDARDDDYCAHEFNVYRWLVAYGNEEEEAAKALKRHLNIRKTIDLNSYSSKTELEEDELNKYVPIDVIGQNHQDDNKVLMFERTGKIDISGLVDNVLMHKFMQIKLKMMEGVHQKVVAAERKTGRQSGGLFIMDLDGISFSPKLISVLTGPYRIMWGTLFDHYPQLLQKIIIVNAPSFVNVLHQACSPFLPEDYKEKIVITSEPAIGAIQKHADKCFLPSDLGGDLEKTTSLPMAPFPKMNKKYEKEKEKVSLLAISVPAGKYTVQKFSWKKGDEVEFFLHNESSFHYFMFHSEEDTKDMDLWREMTVGCERPALSQIDSWKYTVPIDGFYFIRYGNHNSWYFSTTVNVNHFISNENGERIELVPIETFNI”, for which the “soluble on expression in E. coli” value is on record as “not soluble”.

Take “MSPVSARFEPAALRPDLARIAGWIEPGSRVLDLGCGDGALLAYLRDHRQVRGAGVEIDDNYVIACVQRGVEVIQQNLEDGLALFDDQQFDTVVLSQTLQSMHRTEHILREMARVARHGVVSFPNFGYWPHGWSILRGRMPVTGQMPYQWYNTPNIHLCTLRDFEDLAGTLGLRILQRATFNEGREVRVFPSWRSTLALYRFAASLEHHHHHH”: the “soluble on expression in E. coli” value is given as “not soluble”.

For “MSQATQQLDETRLALADALQAGNWDAIGELDQVCQVKIDQAMHDDERDEQALRVSLEQLLSLYNDMLSACRQQREAIGAELTGLQRASKGAKVYQMFG”, the “soluble on expression in E. coli” value is recorded as “not soluble”.

Regarding “MSQDVNELSKQPTPDKAEDNAFFPSPYSLSQYTAPKTDFDGVEHKGAYKDGKWKVLMIAAEERYVLLENGKMFSTGNHPVEMLLPLHHLMEAGFDVDVATLSGYPVKLELWAMPTEDEAVISTYNKLKEKLKQPKKLADVIKNELGPDSDYLSVFIPGGHAAVVGISESEDVQQTLDWALDNDRFIVTLCHGPAALLSAGLNREKSPLEGYSVCVFPDSLDEGANIEIGYLPGRLKWLVADLLTKQGLKVVNDDMTGRTLKDRKLLTGDSPLASNELGKLAVNEMLNAIQNK”, the “soluble on expression in E. coli” value was “not soluble”.

Regarding “MSQEDLELFQQMMGDVKTITHDTVELKKAHQVTEAQLAKREAAVSLADHDPEALSIDHAPMLKPDDMLEFKRDGVQDGVYRKLRLGKYPIQARLDLHRKTLKEARSEVIQFIRQCMAMDIRTLLIVHGRGERSTPPALMKSFVSHWLTQISEVQCAHSAQRLHGGTGAVYVLLRKSAEKKAENRERHQKRLG”, the “soluble on expression in E. coli” value is “not soluble”.

Regarding “MSQEFVGRWKLIHSENFEEYMKEVGVGLITRKAAANLKPTLEIKVEGDLWYSNQYSTFKNTTLSFKLGQEFDETTPDGRTVKSVVNFENGKFIHIQKKIKDSDKESIITRWLEGDKLITTLESGSVVSRREYVRE”, the “soluble on expression in E. coli” value is reported as “not soluble”.

For the sequence “MSQFEKQKEQGNSLFKQGLYREAVHCYDQLITAQPQNPVGYSNKAMALIKLGEYTQAIQMCQQGLRYTSTAEHVAIRSKLQYRLELAQGAVGSVQIPVVEVDELPEGYDRS”, the “soluble on expression in E. coli” value is listed as “not soluble”.

Turning to “MSQFKNIIVTGGAGFIGSNFVHYVYNNHPDVHVTVLDKLTYAGNKANLEAILGDRVELVVGDIADAELVDKLAAKADAIVHYAAESHNDNSLNDPSPFIHTNFIGTYTLLEAARKYDIRFHHVSTDEVYGDLPLREDLPGHGEGPGEKFTAETNYNPSSPYSSTKAASDLIVKAWVRSFGVKATISNCSNNYGPYQHIEKFIPRQITNILAGIKPKLYGEGKNVRDWIHTNDHSTGVWAILTKGRMGETYLIGADGEKNNKEVLELILEKMGQPKDAYDHVTDRAGHDLRYAIDASKLRDELGWTPQFTDFSEGLEETIQWYTDNQDWWKAEKEAVEANYAKTQEVIK”, the “soluble on expression in E. coli” value is reported as “soluble”.

“MSQFSFTKMHGLGNSYIYVNMFEEQIPEEDLALVAEKVSNINTGIGADGMILICPSDVAPVKMRMFNNDGSEGKSCGNGLRCVAKYAYEHKLVEDTVFTIETLAGIVTAEVTVEEGKVTLAKIDMGAPRLTRAEIPMLGEGETPFIRENFLYNNHRYAFTAVSMGNPHAVIFVDDVEQAPLTTLGPVLETHEMFPERVNVEFIEILNEEEMNFRVWERGSGVTQACGTGACAAVVASILNGKMERGKEITVHLAGGDLMIAWTEEGNVLMKGPAEVICRGVYEYKIEA”: the “soluble on expression in E. coli” value is “not soluble”.

For “MSQLSPKNKNDLRQCVLYEFIDGKPVFEAYKSFCDVIGDSCMDYVDFEFWFMRFANGNLNLDFNFDKSSSLSIFNIPIEILVKIMNELDWVSRLSMRQVSRAFRSIVDEESKMPKSLSFGFYDDTVFLQYDDSCVKYKDLEEEGHDDKIDIALFDFGVTLINPRLKLDYFEVLIDAKHGLDIDSDKCFKSLEALLKARNLPLPVKNVNIETNSGYEMNHAKNIIPYLKSGVLEKIVTNCDSSSFENIEIMKEIVELDQWKQAKHLEIDSLVKIPIENFLHFEHFELFFEHLCFQDVKERLLESSNFRHCTLQVMNSFDLEELAANFGIQYMGDDEGIRQTTFYEISTNSLEMTMFLDFVTFDRKF”, the “soluble on expression in E. coli” value was “not soluble”.

“MSQSASQDLSDFLGDDRFATVMADPPWRFTNRTGKVAPEHKRLARYPTMTLEDICALPVADYLQDRAHCYLWVPNALLPEGLQVLSAWGFEYKSNIVWHKVRKDGGSDGRGVGFYFRNVTELLLFGTKGKNARTLAPGRRQVNMMQTRKREHSRKPDEQYELIESCSWGPYLEMFGRGVRDGWTVWGNQADADYKPSWKTYSYNSGVAAELEHHHHHH”: the “soluble on expression in E. coli” value is recorded as “soluble”.

Turning to “MSRDLLGLEGKIVMVTGAGRGFGRAIAHGYGRNGATVIAVDPDVELATGVASEVEALGATAIPIRGDMSVVLDVTSTFEKVEELFGLLDGIVHVTTAESKTPFVELLEGEWYDLMSQDVKSSLYVLQQGLRHLAGGGFVTIVLPPAARIEPHTVSVRKAVEGLIEGATRTFPGVRVNGVVPSRDPVGDPYDLPLVRAALGLGSMVSEGIRGVVLEVQLPEPPLEFEPYAALRELP”, the “soluble on expression in E. coli” value was “soluble”.

In the case of “MSRPPSRPRMMCARVLLLLSVTGLVLACETGPSSGDYEQAVMQDRVQRDMQMREKESVLPPGRREAFRGLNFYEVDPAYRYTVPLRRFETPDTVMIPESTGDLRPQQRIGEVTVPLPEGPEELVVFRGEGDTPRGRLWIPFADSTNRHATYKGGRYVDLTSTDSDSVVVDFNRAYNPTCAYNPDFACPLPPPENRIAVPVAAGEKRPTFGGLEHHHHHH”, the “soluble on expression in E. coli” value is given as “not soluble”.

Take “MSRRGGAPSRPPRPPIRYVATAPKPSRVVTRSRPEGVRWLRADGTPNWSQRVRRLPGDAKELASRPAVSVHKSAPILSAAEKIASHRVRGLVVIKGSGDAVLEGILLATDLVNYLGGGDYFQIVENRHRDSIYSALRKEVVATIMNRHPIAVSVSDDLDTILRIMVGEGIGFLPVLYDDGTLHGVITERNILGRIADIP”: the “soluble on expression in E. coli” value was “not soluble”.

Consider “MSRRSRSRSRSPKRDREERKRREDRDRDRERKRDRKDRERKRRHRSSSSEGSQAEPHQLGSIFREERRRRERNESPKLPPPPPPPPSDPPVDTSIPFDVSTLNEPTKKWLEEKIVEQVSARVHQLEAMMAEKATSARNEMEKMLRAQIEAEMAVELAECKKRDEESRKKCKQLEAELERKVLEAEESRKKFEEDRLAMLEQKSQLERDRAELARQKSDMKKNEQQAILNKSGNSRAPIKFKFGK”, for which the “soluble on expression in E. coli” value is “not soluble”.

For the sequence “MSRSTFSILPYINRQKVKADGTANILCRITVDGKSAAISTGISCTPQEWNAKKGEVRNARDNGRLASFLDEIKDKYNALLVANGIITVEMLKAVLKDKDTTGRFLLSFGDTIVEWYRTAKARQTFLHKRTWQKNLRDFVHSLDKDDIAFEDIDENFGEEYKLFLKRDQGRIDSYVNHCLLWLNMLMYKAVDRSIIRFNPIAKIGYEKKAAPKMTHISKADFIKMLSTPMADERTELARRCFIFASLTSLSYIDVKKLYPRHISENSEGRKFIRKEREKTGVEFFVPLHPIAEKILSLYNTTDDSKPVFPLGEKKDIYLDVHTLGMVLGISNKLGFHASRHTFGVLMLNEDIPIGSIAKMMGHADITSTQVYAQVTEQKISNDMDKLIAKREMNRLSNEKTIGK”, the “soluble on expression in E. coli” value is “not soluble”.

For the sequence “MSRTVMCRKYHEELPGLDRPPYPGAKGEDIYNNVSRKAWDEWQKHQTMLINERRLNMMNAEDRKFLQQEMDKFLSGEDYAKADGYVPPSA”, the “soluble on expression in E. coli” value was “soluble”.

Regarding “MSRVCQVTGKRVQTGNNVSHANNKTRRRFLPNLHKRRFWVASENRWVKLRVSTCAVRTIDKNGIDAVLAELRASGEKVLEHHHHHH”, the “soluble on expression in E. coli” value is on record as “not soluble”.
